Measurements published in patent publication US20250129150A1 (APOGEE THERAPEUTICS, published 2025).

T1: Recombinant Cynomolgus IL-13 Protein, His Tag (SINO BIOLOGICAL, Cat. 11057-C07H) (cynomolgus monkey, UniProt Q5I6E4 19-132 (Macaca thibetana entry))
T1 construct: also called Cyno IL-13; cynomolgus monkey IL-13
T1 chain: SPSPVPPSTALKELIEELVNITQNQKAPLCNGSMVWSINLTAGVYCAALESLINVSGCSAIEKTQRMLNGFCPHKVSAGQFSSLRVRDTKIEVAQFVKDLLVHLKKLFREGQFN

T2: recombinant human CD32a (167R) (human, UniProt P12318 36-218)
T2 sequence (looked up): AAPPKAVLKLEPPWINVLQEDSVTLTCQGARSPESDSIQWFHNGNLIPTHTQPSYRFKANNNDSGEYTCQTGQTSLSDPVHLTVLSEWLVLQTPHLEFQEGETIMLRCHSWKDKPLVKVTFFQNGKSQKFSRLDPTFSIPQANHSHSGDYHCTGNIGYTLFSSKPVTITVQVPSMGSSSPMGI

T3: recombinant human CD32b (human, UniProt P31994 46-217)
T3 sequence (looked up): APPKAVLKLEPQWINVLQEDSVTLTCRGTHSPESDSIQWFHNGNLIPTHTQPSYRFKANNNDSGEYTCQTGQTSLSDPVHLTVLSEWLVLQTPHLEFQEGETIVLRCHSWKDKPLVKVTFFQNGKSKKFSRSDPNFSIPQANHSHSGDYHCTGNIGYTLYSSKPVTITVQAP


Columns and labels:
hIL-13 [1] = target: T4, hIL-13 (human, UniProt P35225 35-146, limits assumed); test: cell-based or functional assay
T4 sequence (P35225 other isoform, or with tags, fused parts or gaps limits assumed): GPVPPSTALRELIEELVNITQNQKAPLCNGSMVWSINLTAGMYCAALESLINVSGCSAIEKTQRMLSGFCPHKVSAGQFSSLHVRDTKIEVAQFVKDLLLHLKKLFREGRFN

hIL-13 [2] = target: T4, hIL-13; test: cell-based or functional assay; remark: listed apart in the source
hIL-13 [3] = target: T4, hIL-13; test: cell-based or functional assay; remark: listed apart in the source
hIL-13 [4] = target: T4, hIL-13; test: cell-based or functional assay; remark: listed apart in the source
hIL-13 [5] = target: T4, hIL-13; test: cell-based or functional assay; remark: listed apart in the source
hIL-13 [6] = target: T4, hIL-13; test: cell-based or functional assay; remark: listed apart in the source
[7] = target: T5, Recombinant Human IL-13 Protein, His Tag (Acro Cat. IL3-H52H4) (human, UniProt P35225 35-146); test: SPR (Biacore 8K), mAb captured on Protein G chip, IL-13 as analyte
T5 construct: Bought protein; also called Hu IL-13; not shown: His Tag
T5 sequence (P35225 other isoform, or with tags, fused parts or gaps limits assumed): as above
Method in brief: (§1)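 Antigen injected multi-cycle over freshly captured mAb; surfaces regenerated with glycine pH 1.5 for 30 sec. Double-referenced sensorgrams fit to a 1:1 binding model for apparent ka and kd; KD = kd/ka.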

[8] = target: T1, Recombinant Cynomolgus IL-13 Protein, …; test: as above
Method in brief: as §1

recombinant human FcRn = target: T6, recombinant human FcRn (human, UniProt P55899 24-297; P61769 21-119); test: SPR, antibody captured on anti-kappa chip, FcRn as analyte, pH 5.8; pH 5.8
T6 construct: also called neonatal Fc receptor
T6 sequence (P55899 24-297 limits assumed, chain 1 of 2): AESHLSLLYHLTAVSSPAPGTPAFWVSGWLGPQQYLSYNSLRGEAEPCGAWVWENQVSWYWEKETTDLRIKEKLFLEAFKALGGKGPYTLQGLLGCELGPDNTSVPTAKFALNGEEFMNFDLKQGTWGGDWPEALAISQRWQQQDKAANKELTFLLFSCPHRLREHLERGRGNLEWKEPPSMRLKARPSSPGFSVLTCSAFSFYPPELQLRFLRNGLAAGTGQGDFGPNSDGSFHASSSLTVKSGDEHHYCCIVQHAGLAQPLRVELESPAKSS
T6 sequence (P61769 21-119 limits assumed, chain 2 of 2): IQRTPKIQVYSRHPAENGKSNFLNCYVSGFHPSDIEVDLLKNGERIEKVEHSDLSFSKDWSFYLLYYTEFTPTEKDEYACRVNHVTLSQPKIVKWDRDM
Protocol: (§2) Binding affinity (KD) of antibodies to Fc receptors and C1q were determined through surface plasmon resonance (SPR) using a Biacore 8K. Briefly, an SPR chip functionalized with an anti-kappa light-chain antibody was used to capture purified antibodies normalized to […], at a flow rate of 10 uL/min for 90 seconds or 120 seconds. A paired channel with only buffer was used as reference. Subsequently, varying concentrations of recombinant human CD32a (167H), CD32a (167R), CD32b, CD16a (176V), CD16a (176F), FcRn, CD64, and C1q were injected over the surface with captured purified antibody as well as the reference channel. Regeneration of the chip between different concentrations of different antigens were performed with 10 mM Glycine HCl, pH 1.5 and antibody was again captured. Association and dissociation rate constants were subsequently determined through fitting to a 1:1 Langmuir binding model or steady-state analysis model, whichever applicable, using the Biacore Insight Evaluation Software from which a KD value was derived.

[9] = target: T2, recombinant human CD32a (167R); test: SPR, antibody captured on anti-kappa chip, recombinant human receptor as analyte
Protocol: as §2

recombinant human CD32b = target: T3, recombinant human CD32b; test: as above
Protocol: as §2

recombinant human CD64 = recombinant human CD64 (human, UniProt P12314 16-288); test: as above
recombinant human CD64, sequence (P12314 16-288 limits assumed): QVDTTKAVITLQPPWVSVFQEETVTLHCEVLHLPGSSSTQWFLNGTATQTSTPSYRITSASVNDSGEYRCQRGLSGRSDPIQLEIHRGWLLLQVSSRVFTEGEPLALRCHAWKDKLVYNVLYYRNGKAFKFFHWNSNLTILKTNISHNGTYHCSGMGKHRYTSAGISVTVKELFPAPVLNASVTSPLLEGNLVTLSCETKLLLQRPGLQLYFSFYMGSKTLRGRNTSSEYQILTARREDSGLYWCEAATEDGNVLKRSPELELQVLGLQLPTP
Protocol: as §2

biotinylated hIL-13 = biotinylated hIL-13 (human, UniProt P35225 35-146, limits assumed, biotinylated (site not stated)); test: FACS; blockade of biotinylated hIL-13 (0.05 ug/mL) binding to HEK293 cells expressing hIL-13Rα1/hIL-4Rα
biotinylated hIL-13, sequence (P35225 other isoform, or with tags, fused parts or gaps limits assumed): as the sequence (P35225 other isoform, or with tags, fused parts or gaps limits assumed) above
Method in brief: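 HEK293 cells stably co-expressing hIL-13Rα and hIL-4Rα (200,000/well) stained at 4 °C for 1 h, then a further 1 h at 4 °C in the dark. Median fluorescence intensity read by flow cytometry.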

hIL-13 [10] = target: T4, hIL-13; test: ELISA
[11] = target: recombinant human CD16a (176V) (human, UniProt P08637 17-208); test: SPR, antibody captured on anti-kappa chip, recombinant human receptor as analyte
recombinant human CD16a (176V), sequence (P08637 17-208 F176V): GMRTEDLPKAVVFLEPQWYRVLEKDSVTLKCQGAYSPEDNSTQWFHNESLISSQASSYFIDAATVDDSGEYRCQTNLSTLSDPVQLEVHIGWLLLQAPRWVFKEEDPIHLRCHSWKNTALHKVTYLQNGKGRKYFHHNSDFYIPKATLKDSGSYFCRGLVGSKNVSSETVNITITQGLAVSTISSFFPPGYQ
Protocol: as §2

recombinant human C1q = target: T7, recombinant human C1q (human, UniProt P02745 23-245; P02746 28-253; P02747 29-245, limits assumed); test: SPR, antibody captured on anti-kappa chip, C1q as analyte; signal relative to rituximab
T7 construct: subunit composition is from general knowledge
T7 sequence (P02745 23-245 limits assumed, chain 1 of 3): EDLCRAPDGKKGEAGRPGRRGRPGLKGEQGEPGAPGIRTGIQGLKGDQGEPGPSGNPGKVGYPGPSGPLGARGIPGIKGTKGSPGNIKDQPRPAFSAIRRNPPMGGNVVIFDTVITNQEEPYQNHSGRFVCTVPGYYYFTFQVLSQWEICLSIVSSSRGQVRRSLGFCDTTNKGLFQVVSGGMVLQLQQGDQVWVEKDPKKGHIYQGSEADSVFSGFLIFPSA
T7 sequence (P02746 28-253 limits assumed, chain 2 of 3): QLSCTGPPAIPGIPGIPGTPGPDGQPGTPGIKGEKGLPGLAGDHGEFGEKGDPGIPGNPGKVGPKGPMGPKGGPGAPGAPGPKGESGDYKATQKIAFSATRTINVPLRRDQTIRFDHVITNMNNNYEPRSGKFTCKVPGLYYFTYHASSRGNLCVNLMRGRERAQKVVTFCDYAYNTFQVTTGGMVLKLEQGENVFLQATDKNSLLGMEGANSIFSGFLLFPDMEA
T7 sequence (P02747 29-245 limits assumed, chain 3 of 3): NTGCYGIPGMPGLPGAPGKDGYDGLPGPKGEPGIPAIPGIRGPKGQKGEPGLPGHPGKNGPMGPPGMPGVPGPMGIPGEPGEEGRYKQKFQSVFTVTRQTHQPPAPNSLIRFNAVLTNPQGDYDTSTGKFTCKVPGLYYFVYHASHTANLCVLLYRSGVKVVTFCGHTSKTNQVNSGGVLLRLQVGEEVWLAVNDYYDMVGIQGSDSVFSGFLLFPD
Protocol: as §2

Binder	pSTAT6 Inhibition IC50 (HT-29 cells) (hIL-13 [1]) [nM]	TARC Release IC50 (A549 cells) (hIL-13 [2]) [nM]	TARC Inhibition IC50 (A549 cells) (hIL-13 [3]) [nM]	TF-1 Proliferation Inhibition IC50 (hIL-13 [4]) [nM]	CD23 Expression Inhibition IC50 (human PBMCs) (hIL-13 [5]) [nM]	pSTAT6 Inhibition IC50 (human PBMCs) (hIL-13 [5]) [nM]	CCL2 Secretion IC50 (HaCaT cells) (hIL-13 [6]) [nM]	CCL26 Secretion IC50 (HaCaT cells) (hIL-13 [6]) [nM]	NTRK1 Expression IC50 (HaCaT cells) (hIL-13 [6]) [nM]	Kd [7] [nM]	Kd [8] [nM]	Kd (recombinant human FcRn) [nM]	Kd [9] [nM]	Kd (recombinant human CD32b) [nM]	Kd (recombinant human CD64) [nM]	IC50 (biotinylated hIL-13) [nM]	Kd (hIL-13 [10]) [nM]	binding result [11]	C1q (Signal Relative to Rituximab) (recombinant human C1q) [%]
Lebrikizumab (Construct 1) (antibody, human IgG4 S228P, kappa, also called Lebrikizumab-HC; Lebrikizumab-LC) heavy: not shown light: DIVMTQSPDSLSVSLGERATINCRASKSVDSYGNSFMHWYQQKPGQPPKLLIYLASNLESGVPDRFSGSGSGTDFTLTISSLQAEDVAVYYCQQNNEDPRTFGGGTKVEIKRTVAAPSVFIFPPSDEQLKSGTASVVCLLNNFYPREAKVQWKVDNALQSGNSQESVTEQDSKDSTYSLSSTLTLSKADYEKHKVYACEVTHQGLSSPVTKSFNRGEC	0.23	0.9	0.74	0.2	0.81	0.38	0.076	0.055	0.056	0.131	0.309	1060	2380	2930	1.12	1.11			
Construct 141 (antibody, human IgG1, kappa, L234A L235A, also called HC1; LC6_m8) heavy: EVQLQESGPGLVKPSETLSLTCTVSGFSLNAYSVNWIRQPPGKGLEWLGMIWGDGKIVYNSALKSRLTISKDSSKNQVSLKLSSVTAADTAVYYCAGDGYYPYAMDNWGQGTTVTVSSASTKGPSVFPLAPSSKSTSGGTAALGCLVKDYFPEPVTVSWNSGALTSGVHTFPAVLQSSGLYSLSSVVTVPSSSLGTQTYICNVNHKPSNTKVDKKVEPKSCDKTHTCPPCPAPEAAGGPSVFLFPPKPKDTLYITREPEVTCVVVDVSHEDPEVKFNWYVDGVEVHNAKTKPREEQYNSTYRVVSVLTVLHQDWLNGKEYKCKVSNKALPAPIEKTISKAKGQPREPQVYTLPPSRDELTKNQVSLTCLVKGFYPSDIAVEWESNGQPENNYKTTPPVLDSDGSFFLYSKLTVDKSRWQQGNVFSCSVMHEALHNHYTQKSLSLSPG light: DIQLTQSPSSLSASVGDRVTITCRASKSVDSYGNSFMHWYQQKPGKAPKLLIYLASELESGVPSRFSGSGSGTDFTLTISSLQPEDFATYYCQQNNEDPRTFGGGTKVEIKRTVAAPSVFIFPPSDEQLKSGTASVVCLLNNFYPREAKVQWKVDNALQSGNSQESVTEQDSKDSTYSLSSTLTLSKADYEKHKVYACEVTHQGLSSPVTKSFNRGEC	0.25		0.73	0.19	0.86	0.41	0.075	0.055	0.054	0.107	0.329					0.81	0.025		
Construct 137 (antibody, human IgG1, kappa, L234A L235A, also called HC5; LC6_m8) heavy: EVQLLESGGGLVQPGGSLRLSCAASGFSLNAYSVNWVRQAPGKGLEWLGMIWGDGKIVYNSALKSRLTISKDSSKNTVYLQMNSLRAEDTAVYYCAGDGYYPYAMDNWGQGTTVTVSSASTKGPSVFPLAPSSKSTSGGTAALGCLVKDYFPEPVTVSWNSGALTSGVHTFPAVLQSSGLYSLSSVVTVPSSSLGTQTYICNVNHKPSNTKVDKKVEPKSCDKTHTCPPCPAPEAAGGPSVFLFPPKPKDTLYITREPEVTCVVVDVSHEDPEVKFNWYVDGVEVHNAKTKPREEQYNSTYRVVSVLTVLHQDWLNGKEYKCKVSNKALPAPIEKTISKAKGQPREPQVYTLPPSRDELTKNQVSLTCLVKGFYPSDIAVEWESNGQPENNYKTTPPVLDSDGSFFLYSKLTVDKSRWQQGNVFSCSVMHEALHNHYTQKSLSLSPG light: DIQLTQSPSSLSASVGDRVTITCRASKSVDSYGNSFMHWYQQKPGKAPKLLIYLASELESGVPSRFSGSGSGTDFTLTISSLQPEDFATYYCQQNNEDPRTFGGGTKVEIKRTVAAPSVFIFPPSDEQLKSGTASVVCLLNNFYPREAKVQWKVDNALQSGNSQESVTEQDSKDSTYSLSSTLTLSKADYEKHKVYACEVTHQGLSSPVTKSFNRGEC	0.33		0.87	0.16	1.01	0.44				0.0421	0.246					0.89	0.026		
Construct 134 (antibody, human IgG4, kappa, also called HC1; LC6) heavy: EVQLQESGPGLVKPSETLSLTCTVSGFSLNAYSVNWIRQPPGKGLEWLGMIWGDGKIVYNSALKSRLTISKDSSKNQVSLKLSSVTAADTAVYYCAGDGYYPYAMDNWGQGTTVTVSSASTKGPSVFPLAPCSRSTSESTAALGCLVKDYFPEPVTVSWNSGALTSGVHTFPAVLQSSGLYSLSSVVTVPSSSLGTKTYTCNVDHKPSNTKVDKRVESKYGPPCPSCPAPEFLGGPSVFLFPPKPKDTLYITREPEVTCVVVDVSQEDPEVQFNWYVDGVEVHNAKTKPREEQFNSTYRVVSVLTVLHQDWLNGKEYKCKVSNKGLPSSIEKTISKAKGQPREPQVYTLPPSQEEMTKNQVSLTCLVKGFYPSDIAVEWESNGQPENNYKTTPPVLDSDGSFFLYSRLTVDKSRWQEGNVFSCSVMHEALHNHYTQKSLSLSLGK light: DIQLTQSPSSLSASVGDRVTITCRASKSVDSYGNSFMHWYQQKPGKAPKLLIYLASNLESGVPSRFSGSGSGTDFTLTISSLQPEDFATYYCQQNNEDPRTFGGGTKVEIKRTVAAPSVFIFPPSDEQLKSGTASVVCLLNNFYPREAKVQWKVDNALQSGNSQESVTEQDSKDSTYSLSSTLTLSKADYEKHKVYACEVTHQGLSSPVTKSFNRGEC	0.2		0.99	0.18						0.105	0.33	160	8140	8620	2.8	1.08	0.05	no binding	25.3
